Reference: patent US20200123233A1
Positions count from the first letter of the chain named.

Assays:
[1] = target: H5 Hemagglutinin (HA, A/Vietnam/1203/2004 (H5N1), Protein Sciences Cat. No. 3006) (influenza A virus A/Vietnam/1203/2004 (H5N1)); assay: SPR (Biacore), H5 coupled on CM5, 1:1 Langmuir model
[2] = substrate: F protein of RSV A-2 (human respiratory syncytial virus, strain A-2) (UniProt P03420); assay: cell-based or functional assay
[3] = substrate: F protein of RSV B-1 (human respiratory syncytial virus, strain B-1) (UniProt P13843); assay: cell-based or functional assay
[4] = substrate: F protein of RSV Long (RSV LONG M-2) (human respiratory syncytial virus, strain Long) (UniProt P12568); assay: cell-based or functional assay
[5] = substrate: F protein of hRSV strain Long (human respiratory syncytial virus, strain Long) (UniProt P12568); assay: cell-based or functional assay
[6] = target: Rabies virus glycoprotein G, Challenge Virus Standard (CVS)-11 strain (Rabies virus, strain CVS-11 (genotype 1 Lyssavirus)) (UniProt O92284); assay: cell-based or functional assay
[7] = target: Rabies virus glycoprotein G, ERA strain (attenuated vaccine strain, ATCC VR332) (Rabies virus, ERA strain (genotype 1 lyssavirus)) (UniProt P03524); assay: cell-based or functional assay

B1: LG202C8 (VHH)
VHH: EVQLVESGGGLVQPGGSLRLSCTGSGFTFSSYWMDWVRQTPGKDLEYVSGISPSGSNTDYADSVKGRFTISRDNAKNTLYLQMNSLKPEDTALYYCRRSLTLTDSPDLRSQGTQVTVSS
Kd [1]: 10 nM

B2: 203H9 (VHH)
VHH: B1 VHH with S56G, K87Q
Kd [1]: 15.5 nM

B3: RSVNC41 (VHH)
VHH: EVQLVESGGGLVQAGGSLSISCAASGGSLSNYVLGWFRQAPGKEREFVAAINWRGDITIGPPNVEGRFTISRDNAKNTGYLQMNSLAPDDTAVYYCGAGTPLNPGAYIYDWSYDYWGRGTQVTVSS
RSV neutralization IC50 (nM) (n = 2), A-2 [2]: 26 nM | RSV neutralization IC50 (nM) (n = 2), B1 [3]: 4000 nM | RSV neutralization IC50 (nM) (n = 2), Long [4]: 58 nM

B4: LG192C10 (VHH)
VHH: EVQLVESGGGLVQAGGSLRLSCAASEGYFRNYMVGWFRQAPGGERMFVAAISDTAYYADSVKGRFTISRDNAKNTVYLPMNSLKPEDTAVYYCAAAPKSWGTWPLVADTRSYHFWGQGTQVTVSS
hRSV micro neutralization, strain Long on Hep2 cells [5]: > 3 µM

B5: 203B12 (VHH)
VHH: EVQLVESGGGLVQPGGSLRLSCAASGFTFSSYAMGWVRRAPGEGLEWVSSISSGGALPTYADSVKGRFTISRDNVKNTLYLQMNSLKPEDTAVYSCEKYAGSMWTSERDAWGQGTQVTVSS
Kd [1]: 30 nM

B6: LG192A8 (VHH)
VHH: EVQLVESGGGLVQAGGSLRLSCAASERTVIAYTMGWFRRAPGKERDFVAAMNWNGGNTIYADSAKGRFTISRDNAKNTVYLQMNSLKAEDTAVYYCAARPRFWGSYEYDYWGQGTQVTVSS
CVS-11 neutralizing antibody titer (RFFIT), IU/mg [6]: < 0.77 IU/mg | CVS-11 neutralizing antibody titer (RFFIT), IU/ml [6]: < 0.5 IU/ml | CVS-11 neutralizing antibody titer (RFFIT), IU/µM [6]: < 0.02 IU/µM | CVS-11 neutralizing antibody titer (RFFIT), nM IC50 [6]: > 4840 nM | ERA neutralizing antibody titer (RFFIT): EU/mg [7]: < 0.77 EU/mg | ERA neutralizing antibody titer (RFFIT): EU/ml [7]: < 0.5 EU/ml | ERA neutralizing antibody titer (RFFIT): EU/µM [7]: < 0.02 EU/µM | ERA neutralizing antibody titer (RFFIT): nM IC50 [7]: > 4840 nM | hRSV micro neutralization, strain Long on Hep2 cells [5]: > 3 µM
